US20260166085A1 (BEAM THERAPEUTICS, published 2026)
Numbering of substitutions follows the chain as printed.

Key:
[1] = target: T1, Wild type CD117 expressed on cells (M07e cells, unedited human CD34+ HSPCs) (human, UniProt P10721 26-976); assay: cell-based or functional assay
[2] = target: T2, Wild type CD117 purified protein (human, UniProt P10721 26-520, limits assumed); assay: binding kinetics grade, FIGS. 55A-55C
T2 construct: Protein used in BLI/kinetics and cryo-EM; also called wt CD117; Wt CD117

[3] = target: T2, Wild type CD117 purified protein; assay: binding kinetics, FIGS. 45A-45K
[4] = target: T3, CC128 variant of CD117 (Y259C + N260D) purified protein (human, UniProt P10721 26-520, limits assumed); assay: binding kinetics, FIGS. 45A-45K
T3 construct: also called CC128-edited CD117 as purified protein

[5] = target: CC200 variant of CD117 (S261G) purified protein (human, UniProt P10721 26-520, limits assumed); assay: binding kinetics, FIGS. 45A-45K
[6] = target: T1, Wild type CD117 expressed on cells …; assay: flow cytometry (MFI) on M07e cells (FIG. 59)
[7] = target: T2, Wild type CD117 purified protein; assay: binding kinetics, antibody 333.3 to 5.2 nM (FIGS. 58A-58D)
[8] = target: T1, Wild type CD117 expressed on cells …; assay: flow cytometry on M07e cells expressing wild type CD117, 1 h (FIG. 87A)
[9] = target: wild type CD117 extracellular domain (ECD) protein (human, UniProt P10721 26-524); assay: BLI (Octet), antibody on AHC biosensor, CD117 ECD titrated 1:2 from 345 nM
Experimental: The AHC biosensor data was analyzed using Octet Analysis Studio software.

[10] = target: T3, CC128 variant of CD117 (Y259C + N260D) …; assay: BLI (Octet), CC128 variant on SA biosensor, antibody titrated 1:2 from 2.5 µM
Experimental: Binding to the CC128 variant of CD117 was determined using streptavidin (SA) biosensors, which were allowed to bind the CC128 variant from a 5 μg/ml solution thereof. The SA biosensors were then titrated with monoclonal antibodies starting at 2.5 μM and using titration increments of 1:2. Data was analyzed using the Octet Analysis Studio Software.

Cyno CD117 = target: T4, Cyno CD117 (cynomolgus, UniProt F6V858 26-520 (rhesus entry)); assay: KD, method not stated (Table 8B)
T4 construct: also called cynomolgus CD117

[11] = target: T2, Wild type CD117 purified protein; assay: KD, method not stated (Table 8B)
[12] = target: T5, CC89 variant of CD117 (T144A) on M07e cells (human, UniProt P10721 26-976); assay: binding to edited M07e cells (Table 8B)
T5 construct: also called CC89-M07e

[13] = target: T1, Wild type CD117 expressed on cells …; assay: cell-based or functional assay; remark: listed apart in the source
[14] = target: T2, Wild type CD117 purified protein; assay: summary Table 75 (repeats Table 71)
[15] = target: T1, Wild type CD117 expressed on cells …; assay: summary Table 75 (repeats Table 73)
[16] = target: T2, Wild type CD117 purified protein; assay: monovalent KD, CD117 titrated (FIGS. 73A-73E)
[17] = target: T1, Wild type CD117 expressed on cells …; assay: flow cytometry on M07e cells, AF647 secondary (FIG. 76A)
[18] = target: T6, CC128 variant of CD117 (Y259C + N260D) expressed on cells (M07e, CD34+ HSPCs) (human, UniProt P10721 26-976); assay: binding to edited M07e cells (Table 8B)
T6 construct: Edited cell pools also hold minor alleles (Y259C alone, N260D alone); also called CC128-edited CD117; CC128-M07e
T6 sequence (P10721 26-976 Y259C/N260D limits assumed): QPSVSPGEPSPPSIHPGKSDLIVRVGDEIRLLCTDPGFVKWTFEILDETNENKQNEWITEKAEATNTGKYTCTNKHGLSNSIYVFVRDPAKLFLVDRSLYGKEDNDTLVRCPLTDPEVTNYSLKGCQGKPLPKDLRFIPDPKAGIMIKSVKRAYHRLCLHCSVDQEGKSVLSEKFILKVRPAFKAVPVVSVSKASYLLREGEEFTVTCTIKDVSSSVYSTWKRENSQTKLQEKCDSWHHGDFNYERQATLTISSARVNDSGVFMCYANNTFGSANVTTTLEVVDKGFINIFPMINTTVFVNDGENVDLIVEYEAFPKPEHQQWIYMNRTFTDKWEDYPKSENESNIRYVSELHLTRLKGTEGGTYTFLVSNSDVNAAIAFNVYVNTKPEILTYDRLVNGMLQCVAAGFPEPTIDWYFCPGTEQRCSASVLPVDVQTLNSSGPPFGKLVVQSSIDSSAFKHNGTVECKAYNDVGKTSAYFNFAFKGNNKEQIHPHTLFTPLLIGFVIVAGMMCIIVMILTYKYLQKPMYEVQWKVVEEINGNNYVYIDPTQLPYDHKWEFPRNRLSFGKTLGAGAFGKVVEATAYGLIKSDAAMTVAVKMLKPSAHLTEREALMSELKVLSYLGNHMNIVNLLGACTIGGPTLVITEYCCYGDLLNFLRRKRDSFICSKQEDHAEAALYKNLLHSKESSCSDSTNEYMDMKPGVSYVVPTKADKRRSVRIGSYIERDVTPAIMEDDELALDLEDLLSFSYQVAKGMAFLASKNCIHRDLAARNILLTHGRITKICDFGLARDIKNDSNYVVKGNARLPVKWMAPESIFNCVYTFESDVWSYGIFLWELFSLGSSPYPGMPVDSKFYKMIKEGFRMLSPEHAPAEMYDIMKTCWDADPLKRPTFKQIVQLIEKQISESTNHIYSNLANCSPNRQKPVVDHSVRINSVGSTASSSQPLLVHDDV

T3 sequence (P10721 26-520 Y259C/N260D limits assumed): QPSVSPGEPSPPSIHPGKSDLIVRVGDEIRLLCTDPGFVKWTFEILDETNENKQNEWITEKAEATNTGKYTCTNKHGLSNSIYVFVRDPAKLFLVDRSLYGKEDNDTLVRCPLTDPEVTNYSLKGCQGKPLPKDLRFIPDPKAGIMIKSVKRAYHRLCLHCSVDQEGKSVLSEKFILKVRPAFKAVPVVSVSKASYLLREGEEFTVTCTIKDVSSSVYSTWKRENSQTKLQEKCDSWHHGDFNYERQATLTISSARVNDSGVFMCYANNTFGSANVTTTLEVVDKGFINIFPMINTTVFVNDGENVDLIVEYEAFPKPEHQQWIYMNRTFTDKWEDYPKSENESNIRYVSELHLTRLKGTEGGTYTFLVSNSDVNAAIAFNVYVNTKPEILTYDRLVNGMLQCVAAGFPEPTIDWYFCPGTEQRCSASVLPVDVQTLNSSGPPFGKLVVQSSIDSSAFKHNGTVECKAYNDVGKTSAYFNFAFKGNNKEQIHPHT
Sequence of wild type CD117 extracellular domain (ECD) protein (P10721 26-524 limits assumed): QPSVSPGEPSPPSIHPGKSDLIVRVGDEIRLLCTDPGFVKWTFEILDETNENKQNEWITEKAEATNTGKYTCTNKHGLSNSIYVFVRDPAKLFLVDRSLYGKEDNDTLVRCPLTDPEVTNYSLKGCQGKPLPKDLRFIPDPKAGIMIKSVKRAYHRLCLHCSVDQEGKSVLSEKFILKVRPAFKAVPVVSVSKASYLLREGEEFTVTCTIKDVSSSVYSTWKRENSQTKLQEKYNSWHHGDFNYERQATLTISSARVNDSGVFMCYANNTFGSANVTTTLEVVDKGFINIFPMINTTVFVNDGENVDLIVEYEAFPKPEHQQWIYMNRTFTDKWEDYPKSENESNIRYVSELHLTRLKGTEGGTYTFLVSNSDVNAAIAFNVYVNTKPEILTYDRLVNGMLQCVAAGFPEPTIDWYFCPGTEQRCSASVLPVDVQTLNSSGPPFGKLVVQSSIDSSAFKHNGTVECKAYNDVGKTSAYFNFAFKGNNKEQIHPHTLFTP
Sequence of CC200 variant of CD117 (S261G) purified protein (P10721 26-520 S261G limits assumed): as the sequence (P10721 26-520 Y259C/N260D limits assumed) above, with C234Y, D235N, S236G counted along it
T4 sequence (chain, as listed by the source): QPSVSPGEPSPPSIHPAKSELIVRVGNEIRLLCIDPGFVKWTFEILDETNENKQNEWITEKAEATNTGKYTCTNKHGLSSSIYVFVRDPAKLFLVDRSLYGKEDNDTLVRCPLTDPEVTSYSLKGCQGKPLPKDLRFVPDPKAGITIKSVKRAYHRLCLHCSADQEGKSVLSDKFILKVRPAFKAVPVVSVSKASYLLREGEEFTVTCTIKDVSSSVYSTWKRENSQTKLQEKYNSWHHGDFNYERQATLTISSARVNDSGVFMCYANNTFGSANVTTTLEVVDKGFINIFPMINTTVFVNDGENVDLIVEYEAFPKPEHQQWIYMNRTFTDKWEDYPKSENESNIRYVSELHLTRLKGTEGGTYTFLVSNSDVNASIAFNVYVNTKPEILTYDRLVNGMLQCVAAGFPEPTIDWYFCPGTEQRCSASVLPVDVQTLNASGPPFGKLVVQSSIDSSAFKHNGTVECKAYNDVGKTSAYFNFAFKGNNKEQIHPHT
T1 sequence (P10721 26-976 limits assumed): as the sequence (P10721 26-976 Y259C/N260D limits assumed) above, with C234Y, D235N counted along it
T2 sequence (P10721 26-520 limits assumed): as the sequence (P10721 26-520 Y259C/N260D limits assumed) above, with C234Y, D235N counted along it
T5 sequence (P10721 26-976 T144A limits assumed): as the sequence (P10721 26-976 Y259C/N260D limits assumed) above, with T119A, C234Y, D235N counted along it

B1: ABTx167 (antibody, human IgG1, kappa, L234A L235A)
heavy: QVQLVQSGAAVKKPGESLKISCKGSGYRFTSYWIGWVRQMPGKGLEWMGIIYPGDSDTRYSPSFQGQVTISAGKSISTAYLQWSSLKASDTAMYYCARHGRGYNGYEGAFDIWGQGTMVTVSSASTKGPSVFPLAPSSKSTSGGTAALGCLVKDYFPEPVTVSWNSGALTSGVHTFPAVLQSSGLYSLSSVVTVPSSSLGTQTYICNVNHKPSNTKVDKKVEPKSCDKTHTCPPCPAPEAAGGPSVFLFPPKPKDTLYITREPEVTCVVVAVSHEDPEVKFNWYVDGVEVHNAKTKPREEQYNSTYRVVSVLTVLHQDWLNGKEYKCKVSNKALPAPIEKTISKAKGQPREPQVYTLPPSRDELTKNQVSLTCLVKGFYPSDIAVEWESNGQPENNYKTTPPVLDSDGSFFLYSKLTVDKSRWQQGNVFSCSVMHEALHNHYTQKSLSLSPG
light: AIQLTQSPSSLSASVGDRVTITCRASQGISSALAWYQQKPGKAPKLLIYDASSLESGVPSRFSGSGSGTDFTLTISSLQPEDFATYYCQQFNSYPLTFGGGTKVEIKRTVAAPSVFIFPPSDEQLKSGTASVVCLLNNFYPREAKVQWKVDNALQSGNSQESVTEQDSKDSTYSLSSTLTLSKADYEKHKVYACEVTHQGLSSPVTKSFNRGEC
IC50 [M], viability of unedited HSCs with 100 ng/mL SCF, 5-7 days [1]: 2.56e-07 M

B2: ABTx252 (antibody, human IgG1, kappa, V domains shown)
VH: QVQLVQSGAAVKKPGESLKISCKGSGYRFTSYWIGWVRQMPGKGLEWMGIIYPGDSDTRYSPSFQGQVTISAGKSISTAYLQWSSLKASDTAMYYCARHGRGYDGYEGAFDIWGQGTMVTVSS
VL: AIQLTQSPSSLSASVGDRVTITCRASQGISSALAWYQQKPGKAPKLLIYDASSLESGVPSRFSGSGSGTDFTLTISSLQPEDFATYYCQQFNSHPLTFGGGTKVEIKR
binding result [2]: no binding

B3: ABTx052 variant VL_N92Y (antibody, human IgG1, V domains shown)
VH: B2 VH with D104N
VL: AIQLTQSPSSLSASVGDRVTITCRASQGISSALAWYQQKPGKAPKLLIYDASSLESGVPSRFSGSGSGTDFTLTISSLQPEDFATYYCQQFYSYPLTFGGGTKVEIK
Kd [3]: 0.841 nM
koff [3]: 0.000635 s⁻¹
kon [3]: 755000 M⁻¹ s⁻¹
binding result [4]: no binding
binding result [5]: no binding

B4: ABTx052 variant VL_Y94S (antibody, human IgG1, V domains shown)
VH: B2 VH with D104N
VL: B3 VL with Y92N, Y94S
Kd [3]: 3.38 nM
koff [3]: 0.00218 s⁻¹
kon [3]: 643000 M⁻¹ s⁻¹
binding result [4]: no binding
binding result [5]: no binding

B5: ABTx052 variant VL_Y94H (antibody, human IgG1, V domains shown)
VH: B2 VH with D104N
VL: B3 VL with Y92N, Y94H
Kd [3]: 3.16 nM
koff [3]: 0.00178 s⁻¹
kon [3]: 563000 M⁻¹ s⁻¹
binding result [4]: no binding
binding result [5]: no binding

B6: ABTx052 variant VH_R59K (antibody, human IgG1, V domains shown)
VH: B2 VH with R59K, D104N
VL: B2 VL with H94Y
Kd [3]: 0.986 nM
koff [3]: 0.000713 s⁻¹
kon [3]: 723000 M⁻¹ s⁻¹
binding result [4]: no binding
binding result [5]: no binding

B7: ABTx253 (antibody, human IgG1, kappa, V domains shown)
VH: B2 VH
VL: B2 VL with N92S, H94Y
IC50 [M], viability of unedited HSCs with 100 ng/mL SCF, 5-7 days [1]: 2.21e-06 M
EC50 [6]: 0.0529 nM
Kd [7]: 13.1 nM
koff [7]: 0.00408 s⁻¹
kon [7]: 312000 M⁻¹ s⁻¹

B8: ABTx308 (antibody, human IgG1, kappa, L234A L235A, V domains shown)
VH: B2 VH with R59K, G105A, E107D
VL: B2 VL with N92S, H94Y
notes: Fc with LALADA
EC50 [8]: 0.398 nM
Kd [9]: 8.48 nM
koff [9]: 0.0166 s⁻¹
kon [9]: 1.95e+06 M⁻¹ s⁻¹
Kd [10]: 7.49 nM

B9: ABTx052 variant VL_N92R (antibody, human IgG1, V domains shown)
VH: B2 VH with D104N
VL: B3 VL with Y92R
Kd [3]: 0.683 nM
koff [3]: 0.000434 s⁻¹
kon [3]: 635000 M⁻¹ s⁻¹
binding result [4]: no binding
binding result [5]: no binding

B10: ABTx070 (antibody, human IgG1, kappa, V domains shown)
VH: EVQLVESGGGVVRPGGSLRLSCAASGFTFDDYGMSWVRQAPGKGLEWVSDINWNGGSTGYADSVKGRFTISRDNAKNSLYLQMNSLRAEDTALYYCARESWDGSGIYYMDVWGKGTTVTVSS
VL: DIVMTQSPSFLSASVGDRVTITCRASQGISSYLNWYQQKPGKAPKLLIYAASTLQNGVPSRFSGSGSGTDFTLTISSLQPEDFATYYCQQSYSTPITFGQGTRLEIKR
Kd (Cyno CD117): 0.486 nM
Kd [11]: 6.5 nM
binding result [12]: no binding

B11: ABTx071 (antibody, human IgG1, kappa, V domains shown)
VH: B10 VH with D50G, Y80H, D102N, G103Y, S104E, I106Y
VL: B10 VL with D1A, V3Q, N34A, D70E, S91L, Y92N, T94Y, I96Y, R103K
Kd (Cyno CD117): 4.28 nM
Kd [11]: 0.523 nM
binding result [12]: no binding

B12: ABTx196 (antibody, human IgG1, V domains shown)
VH: EVQLVESGGGLVQPGRSLRLSCAASGFTFDDYAMHWVRQAPGKGLEWVSGISWNSGTIGYADSVKGRFTNSRDNAKNSLYLEMNSLRAEDTALYYCAKDSPPGYCSSASCYGAFDIWGQGTMVTVSS
VL: DVVMTQSPGTLSLSPGERATLSCRASQSVSSSYLAWYQQKPGQAPRLLIYGASSRATGIPDRFSGSGSGTDFTLTISRLEPEDFAVYYCQQSETCLTFGGGTKLEIK
IC50 (M), depletion of human CD34+ HSPCs [13]: 1.3e-05 M
Kd [14]: 8.18 nM
EC50 [15]: 5.21 nM
Kd [16]: 8.18 nM
koff [16]: 0.000691 s⁻¹
kon [16]: 84400 M⁻¹ s⁻¹
EC50 [17]: 5.21 nM

B13: ABTx062 (antibody, human IgG1, kappa, V domains shown)
VH: B12 VH with A23S, N70I, E82Q, M122T
VL: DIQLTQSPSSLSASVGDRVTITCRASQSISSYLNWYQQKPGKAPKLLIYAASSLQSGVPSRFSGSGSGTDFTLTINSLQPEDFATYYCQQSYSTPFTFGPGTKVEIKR
Kd (Cyno CD117): 31.8 nM
Kd [11]: 18 nM
binding result [18]: no binding

B14: ABTx061 (antibody, human IgG1, kappa, V domains shown)
VH: B12 VH with T57S, N70I, E82Q, S100T, P102L, S107T, A108T
VL: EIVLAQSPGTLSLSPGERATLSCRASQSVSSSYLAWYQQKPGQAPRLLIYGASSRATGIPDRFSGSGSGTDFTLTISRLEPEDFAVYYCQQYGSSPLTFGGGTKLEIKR
Kd (Cyno CD117): 29.5 nM
Kd [11]: 18.6 nM
binding result [18]: no binding

B15: ABTx025 (antibody, human IgG1, kappa, V domains shown)
VH: B12 VH
VL: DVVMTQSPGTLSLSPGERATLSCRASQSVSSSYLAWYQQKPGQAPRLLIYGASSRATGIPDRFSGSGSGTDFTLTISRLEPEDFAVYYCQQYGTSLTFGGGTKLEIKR
Kd (Cyno CD117): 5.31 nM
Kd [11]: 1.25 nM
Kd [14]: 1470 nM
binding result [18]: no binding
Kd [16]: 1470 nM
koff [16]: 0.0509 s⁻¹
kon [16]: 37200 M⁻¹ s⁻¹

B16: ABTx198 (antibody, human IgG1, V domains shown)
VH: B12 VH with S106A
VL: B12 VL with S92D, E93S, T94L, C95G
IC50 (M), depletion of human CD34+ HSPCs [13]: 3.59e-06 M
Kd [14]: 1.2 nM
EC50 [15]: 5.42 nM
Kd [16]: 1.2 nM
koff [16]: 8.74e-05 s⁻¹
kon [16]: 72800 M⁻¹ s⁻¹
EC50 [17]: 5.42 nM

B17: ABTx030 (antibody, V domains shown)
VH: QVQLQESGGGLVKPGGSLRLSCAASGFTFSSYSMNWVRQAPGKGLEWVSSIGTISSYIYYADSVKGRFTISRDNAKNSLYLQMNSLRAEDTAVYYCARDYYGGLFDYWGQGTLVTVSS
VL: not shown
Kd (Cyno CD117): 0.83 nM
Kd [11]: 0.449 nM
